Data published in publication PMC9316223, “Can Modern Molecular Modeling Methods Help Find the Area of Potential Vulnerability of Flaviviruses?” (International Journal of Molecular Sciences, 2022).

Key:
Details in all cases: both partners purified
[1] = target: T1, TEF1, fragment of TBEV E protein containing 1-187 aa (Tick-borne encephalitis virus, strain …, UniProt Q01299); test: far-Western, overlay or dot blot
T1 construct: source: E. coli BL21(DE3), purified (lysis buffer with 8 M urea, Ni-IMAC Sepharose)

[2] = target: T2, WEF1, fragment of WNV E protein containing 1-186 aa (West Nile virus, strain 956 …, UniProt P06935); test: far-Western, overlay or dot blot; dot blot: recombinant proteins (1 µL at 1.5 mg/mL) adsorbed onto nitrocellulose; 10H10 mAb 2 μg/mL in PBS, 0.1% Tween-20, 1% BSA for 10 min; detected with goat anti-mouse IgG conjugated with alkaline phosphatase
T2 construct: envelope protein E of West Nile virus strain 956 (genome NC_001563.2), residues 1-186; numbers count on: the E protein (cut product of the polyprotein); Cloned into pET32 (BamHI/XhoI); the vector may add further linker and tag residues between thioredoxin and the insert; source: E. coli BL21(DE3), purified (lysis buffer with 8 M urea, Ni-IMAC Sepharose)
T2 sequence (P06935 whole entry, looked up, the tested form may be a part): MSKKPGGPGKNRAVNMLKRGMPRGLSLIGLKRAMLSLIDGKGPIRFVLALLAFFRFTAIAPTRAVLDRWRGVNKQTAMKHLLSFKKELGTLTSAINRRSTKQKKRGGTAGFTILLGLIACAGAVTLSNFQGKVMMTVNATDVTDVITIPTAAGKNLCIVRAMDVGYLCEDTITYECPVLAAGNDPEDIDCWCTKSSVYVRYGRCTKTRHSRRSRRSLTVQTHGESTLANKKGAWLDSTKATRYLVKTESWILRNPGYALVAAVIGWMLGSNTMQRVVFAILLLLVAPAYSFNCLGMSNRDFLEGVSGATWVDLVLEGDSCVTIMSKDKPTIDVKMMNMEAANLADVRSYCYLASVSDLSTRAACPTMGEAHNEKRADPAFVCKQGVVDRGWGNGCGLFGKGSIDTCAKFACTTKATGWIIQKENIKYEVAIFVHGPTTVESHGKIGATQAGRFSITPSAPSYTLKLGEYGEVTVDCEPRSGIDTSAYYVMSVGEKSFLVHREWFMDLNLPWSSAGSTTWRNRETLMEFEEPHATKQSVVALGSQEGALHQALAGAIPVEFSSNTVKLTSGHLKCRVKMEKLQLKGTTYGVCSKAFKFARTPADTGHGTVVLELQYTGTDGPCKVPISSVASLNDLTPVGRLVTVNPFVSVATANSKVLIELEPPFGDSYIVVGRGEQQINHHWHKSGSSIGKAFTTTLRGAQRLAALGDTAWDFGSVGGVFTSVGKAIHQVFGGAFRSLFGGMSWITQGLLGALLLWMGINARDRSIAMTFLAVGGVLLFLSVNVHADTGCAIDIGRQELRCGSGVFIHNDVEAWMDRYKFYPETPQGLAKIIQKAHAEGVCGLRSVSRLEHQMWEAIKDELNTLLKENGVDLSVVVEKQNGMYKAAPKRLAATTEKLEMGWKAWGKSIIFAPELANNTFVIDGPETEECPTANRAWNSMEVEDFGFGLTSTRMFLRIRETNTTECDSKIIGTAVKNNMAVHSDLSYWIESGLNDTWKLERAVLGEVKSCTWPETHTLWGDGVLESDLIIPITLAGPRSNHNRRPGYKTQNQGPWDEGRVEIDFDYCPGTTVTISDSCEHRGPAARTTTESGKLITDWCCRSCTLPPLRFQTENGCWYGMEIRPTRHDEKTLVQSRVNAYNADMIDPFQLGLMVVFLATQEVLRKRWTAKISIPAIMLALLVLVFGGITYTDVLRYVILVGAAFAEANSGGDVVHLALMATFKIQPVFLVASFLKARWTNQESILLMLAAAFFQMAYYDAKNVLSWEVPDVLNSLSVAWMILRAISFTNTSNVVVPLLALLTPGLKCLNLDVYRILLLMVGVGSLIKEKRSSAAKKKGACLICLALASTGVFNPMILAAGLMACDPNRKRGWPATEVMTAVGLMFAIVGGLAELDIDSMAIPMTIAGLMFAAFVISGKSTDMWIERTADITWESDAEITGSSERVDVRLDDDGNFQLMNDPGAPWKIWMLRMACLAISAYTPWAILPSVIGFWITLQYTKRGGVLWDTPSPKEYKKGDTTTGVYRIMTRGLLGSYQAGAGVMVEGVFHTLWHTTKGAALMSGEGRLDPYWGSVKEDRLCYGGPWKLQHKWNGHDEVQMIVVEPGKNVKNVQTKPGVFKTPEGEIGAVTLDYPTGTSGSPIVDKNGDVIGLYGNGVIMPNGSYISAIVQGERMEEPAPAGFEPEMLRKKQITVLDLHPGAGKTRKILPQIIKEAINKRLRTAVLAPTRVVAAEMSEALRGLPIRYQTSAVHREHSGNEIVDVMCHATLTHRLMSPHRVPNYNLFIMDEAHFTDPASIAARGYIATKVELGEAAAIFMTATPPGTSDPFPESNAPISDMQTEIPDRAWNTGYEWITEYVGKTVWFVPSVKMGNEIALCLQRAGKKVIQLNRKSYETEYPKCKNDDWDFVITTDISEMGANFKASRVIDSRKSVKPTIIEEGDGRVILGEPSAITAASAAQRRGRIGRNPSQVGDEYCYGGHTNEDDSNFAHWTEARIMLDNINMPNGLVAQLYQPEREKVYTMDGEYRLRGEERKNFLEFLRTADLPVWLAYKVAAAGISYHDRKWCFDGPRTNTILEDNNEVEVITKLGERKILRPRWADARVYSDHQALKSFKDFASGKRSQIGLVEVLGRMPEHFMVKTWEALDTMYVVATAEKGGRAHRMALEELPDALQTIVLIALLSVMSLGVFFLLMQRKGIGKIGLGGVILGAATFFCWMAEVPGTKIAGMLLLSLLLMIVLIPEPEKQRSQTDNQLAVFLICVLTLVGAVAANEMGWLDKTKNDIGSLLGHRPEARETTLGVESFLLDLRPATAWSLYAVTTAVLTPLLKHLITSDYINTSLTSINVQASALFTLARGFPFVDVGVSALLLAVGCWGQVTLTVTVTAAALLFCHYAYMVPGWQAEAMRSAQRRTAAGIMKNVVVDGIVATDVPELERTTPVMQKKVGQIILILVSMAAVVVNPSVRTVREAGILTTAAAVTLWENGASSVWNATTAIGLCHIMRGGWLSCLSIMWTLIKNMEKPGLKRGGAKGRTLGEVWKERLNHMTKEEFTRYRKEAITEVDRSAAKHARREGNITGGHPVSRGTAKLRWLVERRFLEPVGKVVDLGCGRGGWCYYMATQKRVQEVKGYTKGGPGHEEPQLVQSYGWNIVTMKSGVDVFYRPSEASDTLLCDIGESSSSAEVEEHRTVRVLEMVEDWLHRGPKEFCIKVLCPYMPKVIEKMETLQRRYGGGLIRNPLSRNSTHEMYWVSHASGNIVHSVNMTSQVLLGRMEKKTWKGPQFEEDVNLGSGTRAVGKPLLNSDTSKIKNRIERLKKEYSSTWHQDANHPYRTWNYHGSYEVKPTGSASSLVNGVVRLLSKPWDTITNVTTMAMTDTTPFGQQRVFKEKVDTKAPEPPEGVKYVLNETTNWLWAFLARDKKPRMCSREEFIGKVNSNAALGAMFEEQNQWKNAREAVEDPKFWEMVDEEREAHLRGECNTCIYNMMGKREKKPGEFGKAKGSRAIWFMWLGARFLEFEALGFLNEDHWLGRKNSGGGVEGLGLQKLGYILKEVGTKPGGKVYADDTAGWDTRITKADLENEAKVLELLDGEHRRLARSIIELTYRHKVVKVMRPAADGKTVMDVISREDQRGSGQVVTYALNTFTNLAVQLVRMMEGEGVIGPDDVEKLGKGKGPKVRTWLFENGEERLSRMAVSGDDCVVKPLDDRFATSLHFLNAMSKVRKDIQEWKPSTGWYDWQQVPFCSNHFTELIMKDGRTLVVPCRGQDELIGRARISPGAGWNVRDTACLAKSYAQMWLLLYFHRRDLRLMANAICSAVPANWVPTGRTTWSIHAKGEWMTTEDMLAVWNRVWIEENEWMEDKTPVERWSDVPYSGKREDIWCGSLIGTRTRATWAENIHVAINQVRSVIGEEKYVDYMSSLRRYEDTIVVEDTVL

[3] = target: T3, ZEF1, fragment of ZIKV E protein containing 1-187 aa (Zika virus, strain MR-766 (KX377335.1), UniProt A0A192GPS6); test: as above
T3 construct: envelope protein E of Zika virus strain MR-766 (genome KX377335.1), residues 1-187; numbers count on: the E protein (cut product of the polyprotein); Cloned into pET32 (NcoI/XhoI); the vector may add further linker and tag residues; The UniProt entry recalled is of strain Mr 766 from another GenBank record and may differ in a few residues from KX377335.1; source: E. coli BL21(DE3), purified …

[4] = target: T4, DEF1, fragment of DENV E protein containing 1-184 aa (Dengue virus 3, strain Sri …, UniProt Q6YMS4); test: as above
T4 construct: envelope protein E of dengue virus 3 strain Sri Lanka/1266/2000 (genome AY099336.1), residues 1-184; numbers count on: the E protein (cut product of the polyprotein); Cloned into pET32 (BamHI/XhoI); the vector may add further linker and tag residues; source: E. coli BL21(DE3), purified (lysis buffer with 8 M urea, Ni-IMAC Sepharose)

Measured: binding result

B1: 10H10 monoclonal antibody (antibody, V domains shown)
VH: VKLEESGGGLVKPGGSLKLSCAASGFSFSDYYMYWVRQTPEKRLEWVATISDGGSHTSYRDSVKGRFTISRDNGKNNLYLQMSSLKSEDTAMYYCVRGAYWGQGTLVTVSS
VL: not shown
notes: also called 10H10 mAb; 10H10 antibody
binds: all assays above
